Experimental data from patent US20170327598A1 (published 2017).
Where two headings read alike, the source gives them in different places.

Key:
[1] = molecular target: TNF-alpha (U937 cytotoxicity assay of Example 16) (UniProt P01375 77-233, limits assumed); test: cell-based or functional assay
[2] = molecular target: T1, STAT 1 protein (UniProt P42224 1-750, limits assumed); test: sandwich ELISA, STAT protein coated at 0.5 µg/mL
T1 sequence (looked up): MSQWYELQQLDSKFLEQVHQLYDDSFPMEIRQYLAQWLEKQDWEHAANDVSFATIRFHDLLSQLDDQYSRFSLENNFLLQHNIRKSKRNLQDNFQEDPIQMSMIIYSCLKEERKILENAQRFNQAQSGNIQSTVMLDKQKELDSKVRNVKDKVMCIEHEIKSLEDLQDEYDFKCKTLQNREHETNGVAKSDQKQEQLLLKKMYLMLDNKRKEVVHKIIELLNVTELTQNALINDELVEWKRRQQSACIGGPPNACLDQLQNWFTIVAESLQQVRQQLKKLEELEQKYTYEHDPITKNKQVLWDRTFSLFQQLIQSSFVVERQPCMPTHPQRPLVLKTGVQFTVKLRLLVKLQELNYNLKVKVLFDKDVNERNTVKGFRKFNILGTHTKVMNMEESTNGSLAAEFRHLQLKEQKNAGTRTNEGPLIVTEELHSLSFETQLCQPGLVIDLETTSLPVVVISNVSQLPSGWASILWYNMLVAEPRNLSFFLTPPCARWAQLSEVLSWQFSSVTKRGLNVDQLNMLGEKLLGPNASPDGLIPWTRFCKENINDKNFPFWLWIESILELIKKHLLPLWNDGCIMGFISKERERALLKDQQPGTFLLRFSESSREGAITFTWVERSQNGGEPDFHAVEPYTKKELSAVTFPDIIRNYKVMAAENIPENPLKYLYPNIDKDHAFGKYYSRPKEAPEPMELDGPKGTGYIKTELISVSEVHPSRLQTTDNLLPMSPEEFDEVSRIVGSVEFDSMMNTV

[3] = molecular target: T2, STAT 2 protein (UniProt P52630 1-851, limits assumed); test: sandwich ELISA, STAT protein coated at 0.5 µg/mL
T2 sequence (P52630 whole entry): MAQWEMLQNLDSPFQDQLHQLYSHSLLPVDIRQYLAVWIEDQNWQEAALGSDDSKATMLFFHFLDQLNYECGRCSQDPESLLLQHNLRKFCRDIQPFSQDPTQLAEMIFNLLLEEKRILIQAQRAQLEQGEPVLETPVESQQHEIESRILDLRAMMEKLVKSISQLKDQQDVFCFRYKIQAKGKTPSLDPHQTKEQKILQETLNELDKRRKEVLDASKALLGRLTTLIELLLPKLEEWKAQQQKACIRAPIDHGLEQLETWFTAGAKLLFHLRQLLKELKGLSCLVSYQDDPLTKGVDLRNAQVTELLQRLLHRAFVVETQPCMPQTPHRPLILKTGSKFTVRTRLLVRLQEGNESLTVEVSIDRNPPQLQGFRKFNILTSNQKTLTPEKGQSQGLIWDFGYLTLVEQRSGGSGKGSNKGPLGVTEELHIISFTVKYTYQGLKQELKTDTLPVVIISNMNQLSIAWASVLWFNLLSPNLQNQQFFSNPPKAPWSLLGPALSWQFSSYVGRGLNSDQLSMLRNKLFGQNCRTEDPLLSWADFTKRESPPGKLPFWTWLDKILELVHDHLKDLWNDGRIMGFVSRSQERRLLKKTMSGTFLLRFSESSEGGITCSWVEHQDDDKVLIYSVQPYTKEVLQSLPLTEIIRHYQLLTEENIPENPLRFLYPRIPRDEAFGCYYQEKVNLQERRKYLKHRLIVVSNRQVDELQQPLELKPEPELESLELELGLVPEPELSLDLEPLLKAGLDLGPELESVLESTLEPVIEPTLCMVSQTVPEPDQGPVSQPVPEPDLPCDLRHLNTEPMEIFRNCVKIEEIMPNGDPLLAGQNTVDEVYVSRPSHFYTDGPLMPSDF

[4] = molecular target: T3, STAT 5a protein (UniProt P42229 1-794, limits assumed); test: sandwich ELISA, STAT protein coated at 0.5 µg/mL
T3 sequence (looked up): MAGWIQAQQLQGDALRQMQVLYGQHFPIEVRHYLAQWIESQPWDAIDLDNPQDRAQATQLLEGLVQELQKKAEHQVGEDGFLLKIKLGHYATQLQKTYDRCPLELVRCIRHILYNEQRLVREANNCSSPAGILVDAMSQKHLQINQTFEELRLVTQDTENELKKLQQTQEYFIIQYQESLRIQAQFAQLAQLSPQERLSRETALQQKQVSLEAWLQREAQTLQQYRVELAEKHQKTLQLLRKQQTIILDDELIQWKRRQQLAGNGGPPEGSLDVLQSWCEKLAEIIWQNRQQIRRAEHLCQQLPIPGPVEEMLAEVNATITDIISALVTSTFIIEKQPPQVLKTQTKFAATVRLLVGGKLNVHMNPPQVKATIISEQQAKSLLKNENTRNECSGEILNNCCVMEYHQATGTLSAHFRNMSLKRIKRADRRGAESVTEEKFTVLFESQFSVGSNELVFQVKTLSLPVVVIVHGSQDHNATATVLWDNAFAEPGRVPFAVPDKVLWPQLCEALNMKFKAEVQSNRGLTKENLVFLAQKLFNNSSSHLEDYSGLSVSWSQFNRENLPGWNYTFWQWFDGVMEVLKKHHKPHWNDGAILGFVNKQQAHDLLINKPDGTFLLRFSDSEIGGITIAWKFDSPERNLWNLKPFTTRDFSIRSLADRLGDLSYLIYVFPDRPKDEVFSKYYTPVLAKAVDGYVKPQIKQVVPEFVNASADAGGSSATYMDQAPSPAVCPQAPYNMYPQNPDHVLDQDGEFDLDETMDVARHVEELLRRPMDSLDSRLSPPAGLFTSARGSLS

[5] = molecular target: T1, STAT 1 protein; test: sandwich ELISA, STAT protein coated at 0.5 µg/mL; remark: listed apart in the source
[6] = molecular target: T2, STAT 2 protein; test: sandwich ELISA, STAT protein coated at 0.5 µg/mL; remark: listed apart in the source
[7] = molecular target: T3, STAT 5a protein; test: sandwich ELISA, STAT protein coated at 0.5 µg/mL; remark: listed apart in the source
[8] = molecular target: T1, STAT 1 protein; test: sandwich ELISA, STAT protein coated at 0.5 µg/mL; remark: listed apart in the source
[9] = molecular target: T2, STAT 2 protein; test: sandwich ELISA, STAT protein coated at 0.5 µg/mL; remark: listed apart in the source
[10] = molecular target: T3, STAT 5a protein; test: sandwich ELISA, STAT protein coated at 0.5 µg/mL; remark: listed apart in the source
[11] = molecular target: T1, STAT 1 protein; test: sandwich ELISA, STAT protein coated at 0.5 µg/mL; remark: listed apart in the source
[12] = molecular target: T2, STAT 2 protein; test: sandwich ELISA, STAT protein coated at 0.5 µg/mL; remark: listed apart in the source
[13] = molecular target: T3, STAT 5a protein; test: sandwich ELISA, STAT protein coated at 0.5 µg/mL; remark: listed apart in the source
[14] = molecular target: T4, active human TNF-α full length protein (human, UniProt P01375 77-233); test: ELISA, wells coated with 0.5 µg/mL TNF-α, sdAb at 1 µg/mL
T4 sequence (P01375 77-233 limits assumed): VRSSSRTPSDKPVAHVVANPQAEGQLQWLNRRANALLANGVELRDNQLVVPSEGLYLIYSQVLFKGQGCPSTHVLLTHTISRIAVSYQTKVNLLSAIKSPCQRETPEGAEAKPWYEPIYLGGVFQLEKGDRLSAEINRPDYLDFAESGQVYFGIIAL

[15] = molecular target: T4, active human TNF-α full length protein
[16] = molecular target: T4, active human TNF-α full length protein; remark: listed apart in the source
[17] = molecular target: T4, active human TNF-α full length protein; remark: listed apart in the source
[18] = molecular target: T4, active human TNF-α full length protein; remark: listed apart in the source
[19] = molecular target: T4, active human TNF-α full length protein; remark: listed apart in the source
[20] = molecular target: T4, active human TNF-α full length protein; remark: listed apart in the source
[21] = molecular target: T4, active human TNF-α full length protein; remark: listed apart in the source
[22] = molecular target: T4, active human TNF-α full length protein; remark: listed apart in the source
[23] = molecular target: T4, active human TNF-α full length protein; remark: listed apart in the source
[24] = molecular target: T4, active human TNF-α full length protein; remark: listed apart in the source
[25] = molecular target: T4, active human TNF-α full length protein; remark: listed apart in the source
[26] = molecular target: T4, active human TNF-α full length protein; remark: listed apart in the source
[27] = molecular target: Human recombinant TNF-α (Sigma-Aldrich) (human, UniProt P01375 77-233); test: cell-based or functional assay
Chain of Human recombinant TNF-α (Sigma-Aldrich) (P01375 77-233 limits assumed): as above

Chain of TNF-alpha (U937 cytotoxicity assay of Example 16) (P01375 77-233 limits assumed): as above

B1: anti-TNF-alpha VHH69 (SEQ ID NO:46) sdAb (VHH)
VHH: EVQLVESGGGSVLAGGSLRLSCVASGFTSRYNYMAWFRQAPGKEREGVATIGTASGSADYYGSVKDRFTISQDNAKNTVYLQMNSLKPEDTAMYYCAARTYGTISLTPSDYRYWGQGTLVTVSS
- IC50 (inhibition of TNF-alpha cytotoxicity against U937 cells, ATP luminescence) [1]: > 208 µg/mL

B2: STAT5-31 (SEQ ID NO:83) sdAb (VHH)
VHH: EVQLVESGGGSVQTGGSLRLSCAASGFPFSSHVMGWFRQAPGKKREGVAAISVDSGSTWYADSVKGRFTISLDSAKNTLYLQMNSLKPEDTAMYYCATRRGVILTLSPETYDYWGQGTQVTVSS
- Mean OD450 [2]: 0.056 OD450
- Mean OD450 [3]: 0.015 OD450
- Mean OD450 [4]: 0 OD450
- Mean OD450 [5]: 0.122 OD450
- Mean OD450 [6]: 0.076 OD450
- Mean OD450 [7]: 0.158 OD450
- Mean OD450 [8]: 0.015 OD450
- Mean OD450 [9]: 0 OD450
- Mean OD450 [10]: 0 OD450
- Mean OD450 [11]: 0.024 OD450
- Mean OD450 [12]: 0.007 OD450
- Mean OD450 [13]: 0.017 OD450

B3: anti-TNF-alpha VHH62 (SEQ ID NO:47) sdAb (VHH)
VHH: QVQLVESGGGPVQAGETLRLSCTASGFTFAEADMGWYRQAPGHECELVSTITTEGITSEASSYYADSVRGRFTISRDNAKNMVYLQMNSLKPEDTAVYYCAPDPYAYSTYSDYCSWAQGTQGTLVTVSS
- IC50 (inhibition of TNF-alpha cytotoxicity against U937 cells, ATP luminescence) [1]: ~714 µg/mL

B4: anti-TNF-alpha VHH62 (SEQ ID NO:47) sdAb (VHH)
VHH: QVQLVESGGGPVQAGETLRLSCTASGFTFAEADMGWYRQAPGHECELVSTITTEGITSEASSYYADSVRGRFTISRDNAKNMVYLQMNSLKPEDTAVYYCAPDPYAYSTYSDYCSWAQGTQGTLVTVSS
- OD450 [14]: 0.005 OD450
- Signal/Noise Ratio [15]: 2
- Signal/Noise Ratio [16]: 1.9
- Signal/Noise Ratio [17]: 1.5
- Signal/Noise Ratio [18]: 1.4
- Signal/Noise Ratio [19]: 1.7
- Signal/Noise Ratio [20]: 1.5
- Signal/Noise Ratio [21]: 1.1
- Signal/Noise Ratio [22]: 1.1
- Signal/Noise Ratio [23]: 1.4
- Signal/Noise Ratio [24]: 1.3
- Signal/Noise Ratio [25]: 1.1
- Signal/Noise Ratio [26]: 0.9

B5: anti-TNF-alpha VHH66 (SEQ ID NO:45) sdAb (VHH)
VHH: HVQLVESGGGSVEAGGSLRLSCAASGFRYAAYCMGWFRQADGKEREGVATIDIDGLTTHADSVKGRFTISRDNAKNTLSLQMNDLKPEDTAMYYCAADRDRCGSIWTYAYKYRGQGTLVTVSS
- EC50 (inhibition of TNF-α cytotoxicity on L929 cells, Assay 1, Batch A) [27]: 2.9 µg/mL
- EC50 (inhibition of TNF-α cytotoxicity on L929 cells, Assay 1, Batch B) [27]: 1.2 µg/mL
- EC50 (inhibition of TNF-α cytotoxicity on L929 cells, Assay 1, Batch C) [27]: 2.3 µg/mL
- EC50 (inhibition of TNF-α cytotoxicity on L929 cells, Assay 2, Batch B) [27]: 4.5 µg/mL
- EC50 (inhibition of TNF-α cytotoxicity on L929 cells, Assay 2, Batch C) [27]: 6.2 µg/mL

B6: anti-TNF-alpha VHH66 (SEQ ID NO:45) sdAb (VHH)
VHH: HVQLVESGGGSVEAGGSLRLSCAASGFRYAAYCMGWFRQADGKEREGVATIDIDGLTTHADSVKGRFTISRDNAKNTLSLQMNDLKPEDTAMYYCAADRDRCGSIWTYAYKYRGQGTLVTVSS
- OD450 [14]: 3.86 OD450
